Assay results from patent US20070099268A1, “Chimeric HCN channels” (priority 2005, published 2007).
One block for each compound: values may come before it.

Key:
[1] = target: mouse Cx45 on transfected HeLa cells (mouse) (UniProt P28229)
[2] = target: rat Cx40 on transfected HeLa cells (rat) (UniProt P28234)
[3] = target: rat Cx43 on transfected HeLa cells (rat) (UniProt P08050)
AdHCN2 infected culture = assay: Modulation of spontaneous rate by drugs in an AdHCN2 infected culture; format: cell-based, rat; conditions: superfusion with drug; control record of same culture 48, 54 and 96 beats/min respectively
[4] = test system: expressed HCN2 current in a neonatal ventricular myocyte; assay: Effect of threshold concentration of isoproterenol on expressed HCN2 current, two-step voltage protocol; format: cell-based, rat
Source text: The effect of isoproterenol is to shift the activation curve positive without increasing maximal current. This effect can be visualized by a two-step voltage protocol, with the first step to the midpoint of the activation curve and the second step to the maximum curve. FIG. 23 employs this two-step protocol to illustrate that this threshold concentration of isoproterenol shifts the activation curve of over-expressed HCN2 in a neonatal rat ventricle cell.

[5] = test system: native pacemaker current in sinus node; conditions: cited from earlier work
hMSCs loaded with HCN2 = conditions: cited from earlier work
HCN1 = HCN1 (Mus musculus, UniProt O88704); assay: Coexpression of HCN1 with MiRP1 or minK in Xenopus oocytes, two-microelectrode voltage clamp; conditions: maximal conductance
HCN2 = target: T1, HCN2 (Mus musculus, UniProt O88703); assay: Coexpression of HCN2 with MiRP1 or minK in Xenopus oocytes, two-microelectrode voltage clamp; conditions: maximal conductance
T1 sequence (O88703 1-863): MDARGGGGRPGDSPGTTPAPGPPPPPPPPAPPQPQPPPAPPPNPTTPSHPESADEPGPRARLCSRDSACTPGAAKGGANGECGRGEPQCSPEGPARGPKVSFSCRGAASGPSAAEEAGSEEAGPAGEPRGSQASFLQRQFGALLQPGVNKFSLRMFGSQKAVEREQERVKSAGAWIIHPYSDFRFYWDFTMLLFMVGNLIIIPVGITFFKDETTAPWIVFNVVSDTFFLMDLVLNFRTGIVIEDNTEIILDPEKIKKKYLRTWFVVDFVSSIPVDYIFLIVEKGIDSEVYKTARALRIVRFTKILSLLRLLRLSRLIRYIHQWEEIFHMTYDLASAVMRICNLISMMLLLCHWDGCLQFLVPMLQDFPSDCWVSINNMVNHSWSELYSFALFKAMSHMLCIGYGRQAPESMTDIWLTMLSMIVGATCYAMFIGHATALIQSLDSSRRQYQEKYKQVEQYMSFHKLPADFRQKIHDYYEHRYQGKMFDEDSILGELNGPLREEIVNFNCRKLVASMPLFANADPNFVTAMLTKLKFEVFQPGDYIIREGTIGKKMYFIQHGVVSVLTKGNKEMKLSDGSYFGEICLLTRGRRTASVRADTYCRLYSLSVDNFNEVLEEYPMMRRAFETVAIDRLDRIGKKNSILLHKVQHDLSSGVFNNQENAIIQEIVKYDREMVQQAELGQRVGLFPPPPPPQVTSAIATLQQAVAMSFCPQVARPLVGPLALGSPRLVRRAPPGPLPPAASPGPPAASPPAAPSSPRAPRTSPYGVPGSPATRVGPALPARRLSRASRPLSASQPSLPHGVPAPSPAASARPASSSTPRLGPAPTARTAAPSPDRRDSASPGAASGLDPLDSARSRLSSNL

Chain of HCN1 (O88704 whole entry): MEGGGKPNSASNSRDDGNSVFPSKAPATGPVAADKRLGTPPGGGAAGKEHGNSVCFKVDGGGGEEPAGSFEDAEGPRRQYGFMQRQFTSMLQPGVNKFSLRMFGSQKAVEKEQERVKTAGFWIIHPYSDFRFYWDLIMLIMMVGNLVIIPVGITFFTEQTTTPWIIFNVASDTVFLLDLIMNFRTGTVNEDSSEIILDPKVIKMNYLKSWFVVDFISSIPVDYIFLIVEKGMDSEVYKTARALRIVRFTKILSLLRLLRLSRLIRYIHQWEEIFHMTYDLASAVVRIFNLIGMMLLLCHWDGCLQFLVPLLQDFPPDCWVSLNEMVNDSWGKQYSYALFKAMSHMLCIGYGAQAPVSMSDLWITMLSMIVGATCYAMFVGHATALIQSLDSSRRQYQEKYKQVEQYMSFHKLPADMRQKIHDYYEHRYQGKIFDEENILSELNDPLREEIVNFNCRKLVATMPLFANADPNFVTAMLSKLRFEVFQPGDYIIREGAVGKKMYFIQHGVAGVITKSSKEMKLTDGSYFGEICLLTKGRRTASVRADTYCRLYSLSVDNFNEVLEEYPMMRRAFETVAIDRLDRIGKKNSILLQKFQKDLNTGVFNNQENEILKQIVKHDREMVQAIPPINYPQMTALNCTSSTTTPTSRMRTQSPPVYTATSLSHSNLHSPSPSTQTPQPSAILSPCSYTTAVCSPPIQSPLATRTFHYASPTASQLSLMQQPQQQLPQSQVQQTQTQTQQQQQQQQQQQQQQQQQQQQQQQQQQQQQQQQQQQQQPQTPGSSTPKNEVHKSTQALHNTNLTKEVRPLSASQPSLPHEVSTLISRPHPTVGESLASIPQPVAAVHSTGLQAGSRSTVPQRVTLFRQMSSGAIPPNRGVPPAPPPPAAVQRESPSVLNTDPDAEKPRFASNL

junctional conductance in cell pairs (double voltage clamp) [1]: 11 nS | junctional conductance in cell pairs (double voltage clamp) [2]: 4.6 nS | junctional conductance in cell pairs (double voltage clamp) [3]: 7.9 nS
Compound: human mesenchymal stem cells (cells without a defined receptor)

Compound: CC(C)NCC(O)c1ccc(O)c(O)c1 (stereo not drawn) [isoproterenol]
spontaneous rate during drug exposure (AdHCN2 infected culture): 63 beats/min | positive shift of activation curve [4]: approximately 5 mV | threshold concentration on native pacemaker current [5]: approximately 1 nM | effect on expressed current (hMSCs loaded with HCN2): shift in activation such that increased current flowed at more positive potentials

enhancement of HCN1 conductance on coexpression (HCN1): does not enhance | enhancement of HCN2 expression on coexpression (HCN2): does not enhance
Compound: minK: rat minK, the minimal K channel protein
